Tested on: T-bet protein (modified forms used as substrates in in vitro kinase assays)

ITK
phosphorylation in in vitro kinase assay: Both the ITK and Rlk/txk kinases have been found to phosphorylate T-bet in vitro.

Rlk/Txk
phosphorylation in in vitro kinase assay: Both the ITK and Rlk/txk kinases have been found to phosphorylate T-bet in vitro.
